Reference: patent publication US20220119824A1

Tests used:
[1] = target: IL-12 receptor on HEK-Blue™ IL-12 cells (InvivoGen) (UniProt P42701); test: cell-based or functional assay
[2] = target: recombinant murine CTLA-4-human IgG1 Fc chimera (R&D Systems) (mouse; human) (UniProt P09793); test: competitive ELISA: mouse CD80 coated (competitor), murine CTLA-4-human IgG1 Fc chimera at 10 ng/ml mixed with scFv supernatant, anti-human IgG1-HRP
[3] = target: recombinant murine CTLA-4-human IgG1 Fc chimera (R&D Systems) (mouse; human) (UniProt P09793); test: competitive ELISA: mouse CD86 coated (competitor), murine CTLA-4-human IgG1 Fc chimera at 10 ng/ml mixed with scFv supernatant, anti-human IgG1-HRP
[4] = target: mouse TGF-β1 (R&D systems) (mouse) (UniProt P04202); test: direct ELISA with mouse TGF-β1 on supernatant of transfected HEK293T cells
[5] = target: mouse TGF-β1 (R&D systems) (mouse) (UniProt P04202); test: direct ELISA with mouse TGF-β1 on concentrated supernatant of transfected HEK293T cells

| STAT4-SEAP reporter in HEK-Blue IL-12 cells co-cultured with transfected HEK cells (Absorbance/% GFP) (Absorbance/% GFP) [1] | further results | Substance |
| --- | --- | --- |
| 0.11 | – | huIL-12p70 (soluble human IL-12p70) (from UniProt P29460 23-328; P29459 23-219) (ligand) |
| – | % CD80 Blockade Activity [2]: 7%; % CD86 Blockade Activity [3]: 32.5% | Anti-CTLA-4 scFv (ipilimumab scFv antibody fragment) |
| 0.117 | – | Mouse membrane bound IL-12p70 (ligand) |
| 0.11 | – | muIL-12p70 (soluble murine IL-12p70) (from UniProt P43432 23-335; P43431 23-215) (ligand) |
| 0.237 | – | Human membrane bound IL-12p70 (ligand) |
| – | Absorbance at 450 nm (absorbance at 450 nm) [4]: 1.51; Absorbance at 450 nm (absorbance at 450 nm) [5]: 1.52 | Soluble mouse TGFβ receptor II Fc (from UniProt Q62312 24-166) (Fc fusion) |
